Target: T1, MBP-Rng2-1306-end (fission yeast, UniProt O14188 1306-1489)
T1 sequence (looked up): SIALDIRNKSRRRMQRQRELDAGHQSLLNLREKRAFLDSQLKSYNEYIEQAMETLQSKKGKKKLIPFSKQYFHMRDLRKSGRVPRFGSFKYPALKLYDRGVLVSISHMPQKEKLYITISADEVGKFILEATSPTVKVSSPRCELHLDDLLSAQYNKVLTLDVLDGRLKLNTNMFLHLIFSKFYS
Test: pull-down

B1: GST-Mid1 1–100 (domain or fragment, fission yeast, UniProt P78953 1-100, looked up)
chain: MKEQEFSYREAKDVSLDSKGLENSFLSSPNREKTPLFFEGNSNETSGYDQTKNFTHGDGDMSLGNLSELNVATDLLESLDLRSMYMHGYGHLDSSFSSQH
Question: Does B1 bind?
Answer: binds

Source: paper PMC3088474 (Current biology : CB, 2011)
